Laboratory results published in IntAct's records for PubMed 17024177.

What was measured:
sp1_human SP1 = sp1_human SP1 (UniProt P08047)
pdk1_human PDK1 = pdk1_human PDK1 (UniProt Q15118)
Sequence of pdk1_human PDK1 (Q15118 whole entry, looked up): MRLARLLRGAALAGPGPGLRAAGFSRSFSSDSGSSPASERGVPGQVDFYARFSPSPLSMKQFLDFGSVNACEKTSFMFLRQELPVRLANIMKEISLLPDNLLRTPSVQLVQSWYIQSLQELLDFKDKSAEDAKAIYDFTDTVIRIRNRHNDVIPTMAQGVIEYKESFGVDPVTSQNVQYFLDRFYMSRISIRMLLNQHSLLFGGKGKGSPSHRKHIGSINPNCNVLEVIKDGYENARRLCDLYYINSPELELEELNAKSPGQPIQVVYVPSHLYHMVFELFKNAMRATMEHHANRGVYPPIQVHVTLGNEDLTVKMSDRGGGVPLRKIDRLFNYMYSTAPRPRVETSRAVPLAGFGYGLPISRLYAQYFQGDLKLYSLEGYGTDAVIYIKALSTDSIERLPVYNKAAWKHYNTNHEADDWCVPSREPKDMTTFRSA

Sequence of Endothelial PAS domain-containing protein 1 (Homo sapiens), Q99814 P329T (Q99814 whole entry P329T, the tested form may be a part): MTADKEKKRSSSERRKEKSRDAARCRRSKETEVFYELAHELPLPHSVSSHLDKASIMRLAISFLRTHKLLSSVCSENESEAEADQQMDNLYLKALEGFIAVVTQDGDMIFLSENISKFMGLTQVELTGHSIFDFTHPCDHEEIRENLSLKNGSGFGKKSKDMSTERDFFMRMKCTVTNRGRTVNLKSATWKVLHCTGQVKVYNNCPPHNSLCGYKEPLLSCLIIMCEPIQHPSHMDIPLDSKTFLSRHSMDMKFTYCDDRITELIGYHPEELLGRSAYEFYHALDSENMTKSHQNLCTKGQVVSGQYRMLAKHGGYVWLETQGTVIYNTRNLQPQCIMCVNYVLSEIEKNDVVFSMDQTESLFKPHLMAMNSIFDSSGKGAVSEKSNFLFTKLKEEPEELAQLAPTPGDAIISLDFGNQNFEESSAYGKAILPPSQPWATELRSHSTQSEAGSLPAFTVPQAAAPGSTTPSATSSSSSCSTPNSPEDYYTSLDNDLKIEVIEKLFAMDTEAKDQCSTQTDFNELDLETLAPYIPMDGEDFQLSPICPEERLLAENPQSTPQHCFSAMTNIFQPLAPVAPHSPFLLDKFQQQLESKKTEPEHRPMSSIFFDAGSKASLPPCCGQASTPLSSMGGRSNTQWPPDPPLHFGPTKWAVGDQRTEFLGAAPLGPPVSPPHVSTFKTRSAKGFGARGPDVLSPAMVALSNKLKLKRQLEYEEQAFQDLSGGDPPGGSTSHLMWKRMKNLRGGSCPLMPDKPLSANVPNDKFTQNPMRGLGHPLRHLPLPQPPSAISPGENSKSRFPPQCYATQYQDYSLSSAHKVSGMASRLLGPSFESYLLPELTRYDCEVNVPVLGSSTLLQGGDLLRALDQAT
Sequence of sp1_human SP1 (P08047 whole entry): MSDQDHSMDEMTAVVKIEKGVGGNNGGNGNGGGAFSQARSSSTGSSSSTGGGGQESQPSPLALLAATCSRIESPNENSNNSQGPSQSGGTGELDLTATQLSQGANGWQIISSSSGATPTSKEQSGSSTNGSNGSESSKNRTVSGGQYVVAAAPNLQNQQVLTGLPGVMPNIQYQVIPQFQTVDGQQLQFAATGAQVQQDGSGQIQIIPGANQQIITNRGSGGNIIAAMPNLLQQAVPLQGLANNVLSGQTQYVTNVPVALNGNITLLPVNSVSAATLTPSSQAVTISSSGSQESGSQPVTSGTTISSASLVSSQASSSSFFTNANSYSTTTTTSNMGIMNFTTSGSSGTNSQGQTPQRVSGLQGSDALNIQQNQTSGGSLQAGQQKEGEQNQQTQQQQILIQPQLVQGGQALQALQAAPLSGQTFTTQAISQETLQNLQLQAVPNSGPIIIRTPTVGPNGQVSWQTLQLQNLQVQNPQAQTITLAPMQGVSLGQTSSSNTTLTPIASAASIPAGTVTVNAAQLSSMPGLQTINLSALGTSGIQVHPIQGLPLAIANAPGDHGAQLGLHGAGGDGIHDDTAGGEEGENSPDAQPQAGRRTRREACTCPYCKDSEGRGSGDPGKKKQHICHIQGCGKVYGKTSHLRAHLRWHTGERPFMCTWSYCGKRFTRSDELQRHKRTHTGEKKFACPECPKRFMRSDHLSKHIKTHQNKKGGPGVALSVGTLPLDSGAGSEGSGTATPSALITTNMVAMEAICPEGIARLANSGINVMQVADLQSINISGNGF
Sequence of Endothelial PAS domain-containing protein 1 (Homo sapiens), Q99814 T324V (Q99814 whole entry T324V, the tested form may be a part): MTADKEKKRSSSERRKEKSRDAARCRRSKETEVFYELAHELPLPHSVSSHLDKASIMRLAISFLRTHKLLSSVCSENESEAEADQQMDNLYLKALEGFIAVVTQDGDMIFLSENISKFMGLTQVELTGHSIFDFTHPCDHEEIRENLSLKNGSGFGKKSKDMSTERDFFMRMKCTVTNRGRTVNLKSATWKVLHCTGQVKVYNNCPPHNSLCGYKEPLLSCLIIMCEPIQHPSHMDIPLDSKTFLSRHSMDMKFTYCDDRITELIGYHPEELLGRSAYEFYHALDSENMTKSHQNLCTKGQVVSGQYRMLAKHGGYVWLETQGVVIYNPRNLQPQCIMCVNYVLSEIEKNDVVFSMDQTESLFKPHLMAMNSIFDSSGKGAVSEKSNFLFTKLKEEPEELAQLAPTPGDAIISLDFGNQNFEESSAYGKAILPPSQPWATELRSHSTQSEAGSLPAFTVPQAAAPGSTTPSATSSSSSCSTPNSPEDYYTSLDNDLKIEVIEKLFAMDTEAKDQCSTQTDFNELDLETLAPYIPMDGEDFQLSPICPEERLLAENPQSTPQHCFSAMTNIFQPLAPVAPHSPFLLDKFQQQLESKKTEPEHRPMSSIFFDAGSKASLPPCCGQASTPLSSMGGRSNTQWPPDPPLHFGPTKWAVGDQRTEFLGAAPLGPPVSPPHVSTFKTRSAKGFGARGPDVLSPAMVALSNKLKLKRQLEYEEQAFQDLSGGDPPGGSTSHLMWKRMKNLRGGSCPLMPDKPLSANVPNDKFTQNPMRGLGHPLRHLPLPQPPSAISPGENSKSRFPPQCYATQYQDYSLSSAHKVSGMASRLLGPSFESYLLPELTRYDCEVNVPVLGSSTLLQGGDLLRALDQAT

| effect of a mutation on the interaction (sp1_human SP1) | effect of a mutation on the interaction (pdk1_human PDK1) | Substance |
| --- | --- | --- |
| increasing interaction | – | Endothelial PAS domain-containing protein 1 (Homo sapiens), Q99814 P329T |
| – | disrupting interaction | Endothelial PAS domain-containing protein 1 (Homo sapiens), Q99814 T324V |
